Test results from patent publication US20110158954A1, “METHOD FOR PRODUCING GAMMA DELTA T CELL POPULATION” (priority 2007, published 2011).

Tests used:
γδ T cells [1] = assay: Expansion of γδ T cell population using pamidronate, CH-296 plate (Example 3); assay type: cell-based; settings: human PBMCs; IMDM; pamidronate 5 μM; immobilized CH-296; day 14
Description: The expansion was carried out in the same manner as Example 2, except that a plate immobilized with CH-296 prepared in Example 1-(2) was used.
The ratio of the γδ T cells was analyzed according to flow cytometry for PBMCs prepared in Example 1-(1) and the cells on the fourteenth day from the initiation of culture prepared in Example 3-(1), in the same manner as in Example 1-(4). As a result, the ratio of γδ T cells was 8.9% for the PBMCs, and the ratio was from 96.0 to 96.9% for the cells on the fourteenth day from the initiation of culture.
(§1) The number of live cells was counted according to trypan blue staining method for the cells on the fourteenth day from the initiation of culture prepared in Example 3-(1). The expansion fold of γδ T cells was calculated in comparison of the counted number with the number of γδ T cells at the initiation of culture, in the same manner as in Example 1-(5).

Daudi cells = assay: Cytotoxic activity of cultured γδ T cell population, Calcein-AM release; assay type: cell-based, human; settings: γδ T cells expanded 14 days with pamidronate on immobilized FN fragment; target cells Daudi; E/T 30; 4 hours
Description: The cytotoxic activity was determined for the cells on the fourteenth day from the initiation of culture prepared in Example 3-(1). The cytotoxic activity was evaluated by a method for assaying cytotoxic activity using Calcein-AM [Lichtenfels R. et al., J. Immunol. Methods 172(2), 227-239 (1994)]. […]
The cells on the fourteenth day from the initiation of culture prepared in Example 3-(1) were diluted with an RPMI 1640 medium containing 5% (v/v) human AB serum, 0.1 mM NEAA mixture, 1 mM sodium pyruvate (all manufactured by Cambrex), 2 mM L-glutamine, 10 μg/mL streptomycin sulfate (hereinafter referred to as “5HRPMI”) as effector cells, so as to have a concentration of 3×10^6 cells/mL. […] Upon the addition, the ratio of the effector cells (E) to the Calcein-labeled target cells (T) is expressed as an E/T ratio, and the measurements were made at an E/T ratio of 30. […] Thereafter, 100 μL of the culture supernatant was collected from each well, and the amount of Calcein released into the culture supernatant was determined with a fluorescence plate reader (Mithras LB 940, manufactured by BERTHOLD TECHNOLOGIES) (excited at 485 nm/measured at 535 nm). The “cytotoxic activity (%)” was calculated in accordance with the following formula.
Cytotoxic Activity (%)={(Measured Value in Each Well−Minimum Released Amount)/(Maximum Released Amount−Minimum Released Amount)}×100 […]

γδ T cells [2] = assay: Expansion of γδ T cell population cultured using pamidronate (Example 2); assay type: cell-based; settings: human PBMCs; IMDM; stimulant pamidronate 5 μM; IL-2 100 U/mL; immobilized FN fragment; day 14
Description: PBMCs prepared in Example 1-(1) were suspended in IMDM containing 0.25% (w/v) HSA, so as to have a concentration of 2×10^6 cells/mL, to prepare a cell suspension. Thereafter, the above-mentioned cell suspension was added to a plate to which nothing was immobilized or a plate immobilized with H296-H296, prepared in Example 1-(2), in a volume of 1 mL/well each. Pamidronate was added to each well so as to have a final concentration of 5 μM. These plates were incubated at 37° C. in 5% CO2 (zeroth day of culture). On the second day from the initiation of culture, IL-2 was added to each well so as to have a final concentration of 100 U/mL. […]
The ratio of γδ T cells was analyzed according to flow cytometry for PBMCs prepared in Example 1-(1) and the cells on the fourteenth day from the initiation of culture prepared in Example 2-(1), in the same manner as in Example 1-(4). […]
as §1, with “2-(1).” for “3-(1).”

Molecule	expansion fold of γδ T cells compared to control group (γδ T cells [1])	Cytotoxic Activity (%) (Daudi cells)	Expansion Fold of γδ T Cells (Folds) Fourteenth Day of Culture (γδ T cells [2])
CH-296: polypeptide comprising a cell binding domain, a heparin binding domain and a CS-1 domain of fibronectin (SEQ ID NO: 13)	high expansion fold of γδ T cells during the culture, as compared to that of the control group	33.23	
H296-H296: modified fibronectin fragment in which two H-296's are connected to each other (SEQ ID NO: 22) (protein, Fibronectin fragment named H296-H296) AIPAPTDLKFTQVTPTSLSAQWTPPNVQLTGYRVRVTPKEKTGPMKEINLAPDSSSVVVSGLMVATKYEVSVYALKDTLTSRPAQGVVTTLENVSPPRRARVTDATETTITISWRTKTETITGFQVDAVPANGQTPIQRTIKPDVRSYTITGLQPGTDYKIYLYTLNDNARSSPVVIDASTAIDAPSNLRFLATTPNSLLVSWQPPRARITGYIIKYEKPGSPPREVVPRPRPGVTEATITGLEPGTEYTIYVIALKNNQKSEPLIGRKKTDELPQLVTLPHPNLHGPEILDVPSTAMAIPAPTDLKFTQVTPTSLSAQWTPPNVQLTGYRVRVTPKEKTGPMKEINLAPDSSSVVVSGLMVATKYEVSVYALKDTLTSRPAQGVVTTLENVSPPRRARVTDATETTITISWRTKTETITGFQVDAVPANGQTPIQRTIKPDVRSYTITGLQPGTDYKIYLYTLNDNARSSPVVIDASTAIDAPSNLRFLATTPNSLLVSWQPPRARITGYIIKYEKPGSPPREVVPRPRPGVTEATITGLEPGTEYTIYVIALKNNQKSEPLIGRKKTDELPQLVTLPHPNLHGPEILDVPST			×101.8 Folds
